Holding throughout (experiment): SPOT array
The target of test [1] is T1, Myo5 SH3 (MYO5_YEAST), Q04439.
T1 chain: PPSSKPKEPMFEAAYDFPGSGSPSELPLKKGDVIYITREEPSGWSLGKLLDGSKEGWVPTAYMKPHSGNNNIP

Test [2] concerns the target T2, Boi2 SH3 (BOI2_YEAST), P39969.
T2 chain: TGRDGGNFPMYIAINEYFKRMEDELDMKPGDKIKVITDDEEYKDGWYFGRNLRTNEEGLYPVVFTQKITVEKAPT

Test [3] addresses Sho1 SH3 (SHO1_YEAST), P40073.
For test [4], the target named is T3, Yfr024 SH3 (LSB3_YEAST), P43603.
T3 chain: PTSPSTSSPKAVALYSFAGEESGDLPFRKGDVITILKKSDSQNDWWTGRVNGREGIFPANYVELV

Test [5] has as its target T4, Rvs167 SH3 (RV167_YEAST), P39743.
T4 chain: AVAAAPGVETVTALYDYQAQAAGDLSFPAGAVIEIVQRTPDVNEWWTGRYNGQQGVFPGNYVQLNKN

Test [6] has as its target T5, Boi1 SH3 (BOI1_YEAST), P38041.
T5 chain: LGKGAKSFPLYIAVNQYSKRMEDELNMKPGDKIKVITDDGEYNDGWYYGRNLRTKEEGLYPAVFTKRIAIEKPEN

For test [7], the target named is T6, Yhr016c SH3 (YSC84_YEAST), P32793.
T6 chain: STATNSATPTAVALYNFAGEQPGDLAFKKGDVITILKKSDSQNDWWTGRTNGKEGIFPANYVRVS

Chain of Sho1 SH3 (SHO1_YEAST), P40073 (P40073 295-366): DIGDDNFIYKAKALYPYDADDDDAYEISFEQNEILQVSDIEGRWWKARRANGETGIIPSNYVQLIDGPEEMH

As to VHVLKYAPDEPNSL [YDR301W 1194-1207], the normalised SPOT signal, Boehringer light units (BLU); mean over the file's lines of this peptide in test [1] was determined as 191; in test [2] it was 29.5; in test [3], 19.6; in test [4] it was 3.3; in test [5], 34.4; in test [6], 104. The molecule further registered a normalised SPOT signal, Boehringer light units (BLU); mean over the file's lines of this peptide in test [7] of 25.5.
Consider VSHSKYIPLKPIQD [YGL017W 314-327], for which the normalised SPOT signal, Boehringer light units (BLU); mean over the file's lines of this peptide in test [1] stood at 298; in test [2], 29.9; in test [3], 25.4; in test [4], 34.8; in test [5], 6.3; in test [6], 138. Moreover, the normalised SPOT signal, Boehringer light units (BLU); mean over the file's lines of this peptide in test [7] came out at 25.7.
VIIGKTTPISPDEE [YOR151C 910-923]: the normalised SPOT signal, Boehringer light units (BLU); mean over the file's lines of this peptide in test [1] was found to be 54; in test [2], 19.8; in test [3], 36.1; in test [4], 0; in test [5], 32.9; in test [6], 0. For the same molecule, the normalised SPOT signal, Boehringer light units (BLU); mean over the file's lines of this peptide in test [7] turned out to be 6.3.
As for VEVDKKVPVLPMVA [YMR108W 643-656], the normalised SPOT signal, Boehringer light units (BLU); mean over the file's lines of this peptide in test [1] is 130; in test [2], 31.8; in test [3] it was 30.9; in test [4] it was 98.7; in test [5] it was 180; in test [6] it was 107. Besides, the normalised SPOT signal, Boehringer light units (BLU); mean over the file's lines of this peptide in test [7] turned out to be 43.3.
In the case of VFYHRPAPKPPVTK [YDL028C 400-413], the normalised SPOT signal, Boehringer light units (BLU); mean over the file's lines of this peptide amounted to 9050 in test [1]; 29.2 in test [2]; 267 in test [3]; 156 in test [4]; 90.2 in test [5]; 879 in test [6]. Moreover, the normalised SPOT signal, Boehringer light units (BLU); mean over the file's lines of this peptide in test [7] was found to be 95.
In the case of VHFYKSLPQGPAPA [YDR377W 34-47], the normalised SPOT signal, Boehringer light units (BLU); mean over the file's lines of this peptide in test [1] turned out to be 510; in test [2], 44.6; in test [3], 5350; in test [4], 90.7; in test [5], 25.6; in test [6] it was 49.8. Besides, in test [7], the normalised SPOT signal, Boehringer light units (BLU); mean over the file's lines of this peptide was 21.8.
As for VDSFKYEPLAPGND [YLR335W 665-678], the normalised SPOT signal, Boehringer light units (BLU); mean over the file's lines of this peptide was 134 in test [1]; 13.5 in test [2]; 22.1 in test [3]; 0 in test [4]; 35.2 in test [5]; 0 in test [6]. The same molecule had a normalised SPOT signal, Boehringer light units (BLU); mean over the file's lines of this peptide in test [7] of 15.2.
With VKATKWPPKLPEIQ [YMR239C 193-206], the normalised SPOT signal, Boehringer light units (BLU); mean over the file's lines of this peptide was 57.4 in test [1]; 0.8 in test [2]; 25.7 in test [3]; 43.6 in test [4]; 9.9 in test [5]; 170 in test [6]. The normalised SPOT signal, Boehringer light units (BLU); mean over the file's lines of this peptide in test [7] was 49.9.
As to VKKEKKPPKIPKKV [YPR104C 435-448], the normalised SPOT signal, Boehringer light units (BLU); mean over the file's lines of this peptide in test [1] worked out at 534; in test [2], 8.9; in test [3] it was 71.6; in test [4] it was 782; in test [5], 71.6; in test [6], 1300. In test [7], this molecule had a normalised SPOT signal, Boehringer light units (BLU); mean over the file's lines of this peptide of 32.9.
Take VEMKRKKPVRPVDI [YDR436W 385-398]: the normalised SPOT signal, Boehringer light units (BLU); mean over the file's lines of this peptide in test [1] was determined as 472; in test [2], 48.2; in test [3] it was 66.9; in test [4], 2590; in test [5], 64; in test [6] it was 1610. The normalised SPOT signal, Boehringer light units (BLU); mean over the file's lines of this peptide in test [7] came to 152.
On to VKRPRLNPFLPRDE [YGL097W 70-83], for which the normalised SPOT signal, Boehringer light units (BLU); mean over the file's lines of this peptide in test [1] came out at 1190; in test [2], 2400; in test [3], 119; in test [4] it was 2420; in test [5], 4070; in test [6] it was 135000. In test [7], the normalised SPOT signal, Boehringer light units (BLU); mean over the file's lines of this peptide was determined as 348.
VEKRKFTPIEPSLL [YPL242C 332-345]: the normalised SPOT signal, Boehringer light units (BLU); mean over the file's lines of this peptide in test [1] stood at 171; in test [2], 77.3; in test [3], 35.6; in test [4] it was 179; in test [5], 222; in test [6], 594. Besides, the normalised SPOT signal, Boehringer light units (BLU); mean over the file's lines of this peptide in test [7] is 71.2.
As for VSTIRSTPSQPIHS [YDR390C 176-189], the normalised SPOT signal, Boehringer light units (BLU); mean over the file's lines of this peptide in test [1] was 245; in test [2] it was 39.1; in test [3], 59.8; in test [4], 177; in test [5], 68.8; in test [6] it was 93.9. This molecule also came in with a normalised SPOT signal, Boehringer light units (BLU); mean over the file's lines of this peptide in test [7] of 37.4.
As to VFVEKSKPTYPGTE [YOL155C 384-397], the normalised SPOT signal, Boehringer light units (BLU); mean over the file's lines of this peptide in test [1] was determined as 96.4; in test [2], 19.2; in test [3] it was 81; in test [4], 0; in test [5] it was 64.7; in test [6] it was 51.6. For the same molecule, the normalised SPOT signal, Boehringer light units (BLU); mean over the file's lines of this peptide in test [7] was determined as 22.1.

The values are drawn from publication PMC314469, “Protein Interaction Networks by Proteome Peptide Scanning” (PLoS Biology, 2004).
